Molecular target: H2A.Z variant containing recombinant nucleosomes (UniProt P0C0S5)
Assay: pull-down; nucleosomes (2.5 μg) pre-bound to Dynabeads M-280 streptavidin; CFDP1 protein (10 μm) added; 4 h at 4°C; 20 mM Hepes pH 8.0, 150 mM NaCl, 0.2 mM EDTA, 20% glycerol, 0.1% NP40, 1 mM DTT; wash with 200 mM NaCl; immunoblot, normalized to H4

- fold binding over H2A canonical nucleosomes (normalized to H4 levels): 3.3 fold
Substance: HIS tagged full-length CFDP1 protein (mouse craniofacial development protein 1) (from UniProt O88271 1-295) (natural protein)

Reference: publication PMC11023358
